# Where a chain is given by its changes, count along the chain named.
# Key:
# Assay in all cases: Chemotaxis assay, L1.2 transfectants migrating to CXCL11
# Assay type in all cases: cell-based
# [1] = molecular target: T1, CXCR3 Y271A (Homo sapiens, UniProt P49682, Y271A)
# T1 construct: expressed in transfected cells; host or cells: murine pre-B cell line L1.2, transient transfection
# T1 sequence (P49682 1-368 Y271A): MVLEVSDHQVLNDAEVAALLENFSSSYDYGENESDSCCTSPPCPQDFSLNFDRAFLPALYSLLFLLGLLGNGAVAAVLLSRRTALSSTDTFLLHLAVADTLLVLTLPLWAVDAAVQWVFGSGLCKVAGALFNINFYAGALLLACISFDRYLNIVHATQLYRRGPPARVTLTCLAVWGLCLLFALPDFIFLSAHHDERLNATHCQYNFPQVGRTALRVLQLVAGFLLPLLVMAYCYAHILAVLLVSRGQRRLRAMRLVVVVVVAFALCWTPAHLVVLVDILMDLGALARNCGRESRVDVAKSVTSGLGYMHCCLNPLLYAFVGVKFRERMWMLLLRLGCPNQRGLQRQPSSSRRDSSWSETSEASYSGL
# Method: (§1) A previously described pcDNA3 plasmid containing human wild type (WT) CXCR3 cDNA with an HA epitope tag encoded at the N terminus (Meiser et al., [2008]) was used as a template for the generation of point mutants by PCR using the QuikChange II site-directed mutagenesis kit (Stratagene, Amsterdam, the Netherlands). All constructs were verified by DNA sequencing (Eurofins MWG Operon, Ebersberg, Germany) before use. L1.2 cells were transiently transfected by electroporation with 1 μg of vector DNA/10^6 cells at 330V, 975μF and incubated overnight in medium supplemented with 10 mM of sodium butyrate to enhance gene expression.
# (§2) Assays of chemotactic responsiveness were carried out as previously described (Vaidehi et al., [2009]) using 96-well ChemoTx® plates with 5 μm pores (Neuroprobe, Gaithersburg, MD, USA). Migrating cells were detected by the use of CellTiter Glo® Dye (Promega, Southampton, UK) and resulting luminescence measured using a TopCount scintillation counter (PerkinElmer, Waltham, MA, USA). Basal migration of cells to buffer alone was subtracted from the resulting data, with individual results expressed as a percentage of the total cells applied to the filter. In all experiments, each data point was assayed in duplicate. In every experiment, cells transiently expressing WT CXCR3 were used as a positive control.
# [2] = molecular target: T2, CXCR3 F207A (Homo sapiens, UniProt P49682, F207A)
# T2 construct: expressed in transfected cells; host or cells: murine pre-B cell line L1.2, transient transfection
# T2 sequence (P49682 1-368 F207A): T1 sequence (P49682 1-368 Y271A) with F207A, A271Y
# Method: as §1, §2
# [3] = molecular target: T3, CXCR3 V275A (Homo sapiens, UniProt P49682, V275A)
# T3 construct: expressed in transfected cells; host or cells: murine pre-B cell line L1.2, transient transfection
# T3 sequence (P49682 1-368 V275A): T1 sequence (P49682 1-368 Y271A) with A271Y, V275A
# Method: as §1, §2
# [4] = molecular target: T4, CXCR3 N132A (Homo sapiens, UniProt P49682, N132A)
# T4 construct: expressed in transfected cells; host or cells: murine pre-B cell line L1.2, transient transfection
# T4 sequence (P49682 1-368 N132A): T1 sequence (P49682 1-368 Y271A) with N132A, A271Y
# Method: as §1, §2
# [5] = molecular target: T5, CXCR3 Y205A (Homo sapiens, UniProt P49682, Y205A)
# T5 construct: expressed in transfected cells; host or cells: murine pre-B cell line L1.2, transient transfection
# T5 sequence (P49682 1-368 Y205A): T1 sequence (P49682 1-368 Y271A) with Y205A, A271Y
# Method: as §1, §2
substance,measurement,setting,value
"CXCL11: recombinant human chemokine, CXCR3 agonist, purchased from PeproTech",% of WT chemotaxis to 30 nM CXCL11 (mean ± SEM),[1],1.0 ± 0.6%
same,% of WT chemotaxis to 30 nM CXCL11 (mean ± SEM),[2],0.8 ± 0.8%
same,% of WT chemotaxis to 30 nM CXCL11 (mean ± SEM),[3],52.9 ± 8.2%
same,% of WT chemotaxis to 30 nM CXCL11 (mean ± SEM),[4],0.7 ± 0.5%
same,% of WT chemotaxis to 30 nM CXCL11 (mean ± SEM),[5],35.5 ± 21.5%
